This is an account of results in the nanobody polyreactivity screen of Harvey et al. (2022).

A short description of the data set: yeast display, Sf9 membrane polyspecificity reagent, FACS + sequencing; frameworks hold sequencing errors. Put shortly: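 Polyreactivity labels are assigned by the sorting gate from which each nanobody was recovered. The gates were low and high (top ~1%), set on anti-HA fluorescence for expression and streptavidin fluorescence for reagent binding. Before sorting, galactose-induced (36–48 hours) yeast display cells were stained for 1 hour at 4 °C with 10% biotinylated, detergent-solubilized Sf9 membrane reagent.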
Turning to “QVKLVESGGGLVQAGGSLRLSCAASGSTFWGYAMGWYRQEPGKERELVATITTGGSTNYADSVKGRFTISRDNAKNTVYLQMNSLKPEDTAVYYCAKEVDPGSITSYGAGAHFGFDYWGQGTQVTVSS”, the “polyreactivity (PSR sort gate)” value is “low polyreactivity”.

Turning to “QVKLVESGGGLVQAGGSLRLSCADSGLIFGRNARGWYRQAPGKERELVAAISSSGVRTFYADSVKGRFTISRDNAKNTVYLQMNSLKPEDTAVYYCATRGRVYPTKYSLDEDYWGQGTQVTVSS”, the “polyreactivity (PSR sort gate)” value is given as “high polyreactivity”.

On to “QVKLVESGGGLVQAGGSLRLSCADSGSIFGGNTMVWYRQAPGKEREFVAAITWGGNTYYADSVKGRFTISRDNAKNTVYLQTNSLKPEDTAVYYCAAGGRPQYWGRYYYWGQGTQVTVSS”, for which the “polyreactivity (PSR sort gate)” value was “high polyreactivity”.

As for “QVKLVESGGGLVQAGGSLRLSCADSGSIFQRYAMGWYSQKPGKAREFVAAISGRGGSTYYADSVKGRFTISRDNAKNTVYLQMNSLKPEDTAVYYCAADSSRFYGRPRYYYWGQGTQVTVSS”, the “polyreactivity (PSR sort gate)” value is recorded as “high polyreactivity”.

As for “QVKLVESGGGLVQAGGSLRLSCAPSGFTFFTYAMGWYRQAPGKERVLVAAITSGGSTNYADSVKGRFTISRDNAKNTVDLQMNSLKPEDTAVYYCAKLAYSDATTVYGYQRSDYWGQGTQVTVSS”, the “polyreactivity (PSR sort gate)” value is on record as “low polyreactivity”.

For the sequence “QVKLVESGGGLVQAGGSLRLSCPASGSIFYRNTMGWYRQEPGKERELVASITSGSSTFYADSVKGRFTISRDNAKNTVYLQMNSLKAEDTAVYYCAKRRGSPGFRFRAGGAYGYWGQGTQVTVSS”, the “polyreactivity (PSR sort gate)” value is listed as “low polyreactivity”.

For the sequence “QVKLVESGGGLVQAGGSLSLSCAASGRIFSYNAMGWYRQAPGKERELVAVISRSDTSTYYADSVKGRFTISRDNAKNTVYLEMNSLKPEDTAVYYCNADGPTYFRYSGYYYWGQGTQVTVSS”, the “polyreactivity (PSR sort gate)” value is recorded as “low polyreactivity”.

“QVKLVESGGGLVQAGGSLSLSCAATGIIFRFYSMGCYRQAPGKERELVAVITSRSDSTYYADSVKGRFTISRDNAKNTFYLQKNSLKPEDTAVYYCNARYPWYYRYSTYDYWGQGTQVTVSS”: the “polyreactivity (PSR sort gate)” value is listed as “high polyreactivity”.

On to “QVKLVESGGGLVQSGGSLRLTSAASGSTFPRYAMGWYRQAPGKEREFVAVIWSGGSTYYADSVKGRLTISRDNAKNTVYLQMNSLKPEDTAVYYCAAEYHTLSLDSGYATHDYWGQGTQVTVSS”, for which the “polyreactivity (PSR sort gate)” value was “low polyreactivity”.

Take “QVKLVESGGVLVQAGGSLRLSCAASAFTFRWYSMGWYRQATGKERELVARISWDGGSTYYADSVKGRFTISRDNAKNTVYVQMNSLKPEDTAVYYCAIDWYYLRRNYDYWGQGTQVTLSS”: the “polyreactivity (PSR sort gate)” value is given as “high polyreactivity”.

Regarding “QVKLVESVGGLVQAGGSLRFSCAASANTFYYYAMGWYREAPGNDMELVASITWRVGDTYYADSVKGRFTIARDNAKNTVYLQMNSLKPEDTAVYYCAKPRLGRYDSLSYLGDYPGYDYWGQGTQVTVSS”, the “polyreactivity (PSR sort gate)” value is “low polyreactivity”.

“QVKLVETGGGLVQAGGSLRLSSAASGTTFVHYDMGWYRQAPGNERELVAAISRSGASTYYADSVKGRFTISRDHAKNTVYLQMNSLKPDDTAVYYCATIKYYGRRFNYWGQGTQVTVSS”: the “polyreactivity (PSR sort gate)” value is recorded as “high polyreactivity”.

Take “QVKRVESGGGLVQAGGSLRLSCAASGSTFYDYAMGWYRPAHGKQRELVAAINGNGDSTYYADSVKGRFTISRDNAKNTVYLQMNSLKPEDTAVYYCAAYLGWGYDYWGQGTQVTVSS”: the “polyreactivity (PSR sort gate)” value is “low polyreactivity”.

Consider “QVLLQERGGGLVQAGGSLRLSCAASGTISTDIRMGWYRLAPGKEREFVASIDGCSTTYYAYSVKGRFTISRDNAKNTVYLQMNSLKPEDTAMYYCAAREATEFYLYYWGQGTQVTVSS”, for which the “polyreactivity (PSR sort gate)” value is “low polyreactivity”.

Take “QVLLQESGGGLVEAGGSLRLSCAASGTISTDIRMGWYRLAPGKEREFVASIDGGSTTYYADSVKGRFTISRDNAKNTVYLQMNSLKPQDTAMYYCAAGEATEFYLYYWGQGTQVTVSS”: the “polyreactivity (PSR sort gate)” value is “low polyreactivity”.

Consider “QVLLQESGGGLVQAGGSLRLCCAASGYISGDQYMGWYRQAPGKEREFVAGIGNGTNTNYADSVKGRFTTSRDNAKNTVYLQMNSLKPEDTAVYYCAADPSDGSTLAYWGQGTQVTVSS”, for which the “polyreactivity (PSR sort gate)” value is “high polyreactivity”.

With “QVLLQESGGGLVQAGGSLRLSCAASGNIFSAGGMGCYRQAPVNERELVAGIGTGTSTNYADSVKGRFTISRDNAKNTVYLQMNSLKPEDTAVYYCAAAYYSGLSHWYWGQGTQVTVSS”, the “polyreactivity (PSR sort gate)” value is recorded as “low polyreactivity”.

Regarding “QVLLQESGGGLVQAGGSLRLSCAASGNIFTAGGMGWYRQAPVNERELVAGIGTGTSTNYADRVKGRFTISRDNAKNTVYLQMNSLKPEDTAVYYCAPAYYSGLSHWYWGQGTQVTVSS”, the “polyreactivity (PSR sort gate)” value is “low polyreactivity”.

Take “QVLLQESGGGLVQAGGSLRLSCAASGSIFLFYTMGWYRQAPVKEREFVAGITLGTTTYNADSVKGRFTISRDNVKNTVYLQMNSLKPEDTAVYYCAVAVGHYTEFWYWGQGTQVTMSS”: the “polyreactivity (PSR sort gate)” value was “high polyreactivity”.

For “QVLLQESGGGLVQAGGSLRLSCASSGTISTDIRMGWYRLAPGKEREFVASIDGCSTTYYADSVKGRFSISRDNAKNTVYLQMNSLKPEDTSMYYCAAREATEFYLYYWGQGTQVTVSS”, the “polyreactivity (PSR sort gate)” value is “low polyreactivity”.

For the sequence “QVLLQESGGGLVQAGGSLRVSCAASGTISTDIRMGSYRLAPGKEREFVASIDGCSTTYYADSVKGRFTISRDNAKNTVYLQMNSLKPEDTAMYYCAAREATEYYLYYWGQGTQVTVSS”, the “polyreactivity (PSR sort gate)” value is given as “low polyreactivity”.

On to “QVLLQESGGLVQAGCSLRMSCAASGSISTALSMGWYRQAPGKERELVSTISDGASTNYADSVKGRFTISRVNAKNTVYLQMNSLKPEDTAVYYCARYYFGNFGWGQGTQVTVSS”, for which the “polyreactivity (PSR sort gate)” value is on record as “high polyreactivity”.

In the case of “QVLLQESGSGLVQAGGSLRLSCAASGTISTDIRIGLYRLAPRKEREFVASIDGCSTTYYADSVKGRFTISRDNAKNSVYLQMNSLKPEVTAMYYCAAREATEFYLYYWGQGTQVTVSS”, the “polyreactivity (PSR sort gate)” value is on record as “low polyreactivity”.

On to “QVLLQESVGGLVQAGGSLRLGCAASGTISPAYYMGRYQQEPGKVRQFVAAITYGTNTYYADSVKGRFTISRDNAKNTVYLQMNSLKPEDTAVYYCSATAGYNGAHDYWGQGTQVTVSS”, for which the “polyreactivity (PSR sort gate)” value is reported as “low polyreactivity”.

On to “QVLLVESGGALVQAGGSLRLSCAASGYIFRFYTLRGYRQAPGKERELVAAISAGGSTNSADSVKGRFTISRDNAKNTVYLQMNSLKPEDTAVEYCAARYYSRYYWGQGTQVTVSS”, for which the “polyreactivity (PSR sort gate)” value is on record as “low polyreactivity”.

With “QVLLVESGGGLVQAGGSLRLSCAASGAIFRGYVMGWYSQAPGKERELVAAISYSGGATYYADSVKGRFTLSRDNAKNTVYVQMNSLKPEDTAVYYCAAYRYRYPYRLYDYWGQGTQGTVSS”, the “polyreactivity (PSR sort gate)” value is “high polyreactivity”.

For the sequence “QVLLVESGGGLVQAGGSLRLSCAASGRIFDDYAMGWYRQAPGKESELVAAITSGGRTYYADSVKGRFTISRDNAKNTVYLKMHSLKPDDTAVYYCAAQYGWFYEFVYWGQGTPVTVSS”, the “polyreactivity (PSR sort gate)” value is reported as “high polyreactivity”.

For “QVLLVESGGGLVQAGGSLRLSCAATGSTFIRNAMGWYSQAPGKERELVAVISSGGSTYYADSVKGRFTISREIAKNTVYLQMNSLKPEDTAVYYCPAGDPQKEDYWGQGTQVTVSS”, the “polyreactivity (PSR sort gate)” value is listed as “low polyreactivity”.

On to “QVLLVESGGGLVQAGGSLRVSCAASGRTFGGYGMGWYRQAPGKDRELVASISFSGGAGTYYADSVKGRFTISRDNATTPVYLQMNSLKPEDTAVYYCAKRYVTPTYRRYSWGQGTQETVSS”, for which the “polyreactivity (PSR sort gate)” value is listed as “high polyreactivity”.

For “QVNLVESGGGLVLAGGSLRLSCAASGRIYRRNTMGWYRPAPGKERELVAAITSSGGSTYADSVKGRFTISRDNAKNTVYLQMNSLKPEDTAVYYCDTYVAYHRGYRTYDHWGQGTQVTVSS”, the “polyreactivity (PSR sort gate)” value is “low polyreactivity”.

“QVNLVESGGGLVLAGGSLRLSCAASGVTYGNNAMGWYRQAPGKEREFVATISRRGGSTYYADSVMGRFTISRDNAKNTVYLQMNRLKPEDTAVYYCDVDRAGIKFAAGYDYWGQGTQVTVSS”: the “polyreactivity (PSR sort gate)” value is listed as “high polyreactivity”.

Take “QVPHVESGGGLVQAGGSLRLSSAASGFIHKSYTMGWYRQAPGKERELVAAISRSGASKYYAYSVKGRFTISRDNAKNTVYLQMNSLKPEDTAVYYCNRRRHNIGTGEYNYWGQGTQVTVSS”: the “polyreactivity (PSR sort gate)” value is “high polyreactivity”.

“QVPLVESGGGLVQAGGSLRLSCAASGFIFYANAMGWYRQAPGKERELVAAISWDGGRTYYADSVKGRFTISRDNAKNTVYLQMNSLKPDDTAVYSCNALATDLDYWGQGTQVTVSS”: the “polyreactivity (PSR sort gate)” value is “low polyreactivity”.

Regarding “QVPLVESGGGLVQAGGSLRLSCAASGSIFQLYAMGWYRQAPGKEREFVAAITRSGGRTYYADSVKGRFTISRDNAKNTVYIQMNSLKPEDTAVYYCAADWVRNVYYRGYDYWGQGPQVTVSS”, the “polyreactivity (PSR sort gate)” value is on record as “high polyreactivity”.

As to “QVPLVESGGGLVQAGGSLRLSCAASGSIFWTYTIGWYRKAPGKERELVAAITSSGSTNFADSVKGRFTISRDNAKKTVYLQMNSLKPADTAVYYCAADPEYRGYQRYDYWGQGTQVTVSS”, the “polyreactivity (PSR sort gate)” value is “low polyreactivity”.

As to “QVPLVESGGGLVQAGGSLRLSCAASGSTFSGYAMGWYRQAPGKERELVATITSTGSTNYADSVKGRFTISRDNAKNTVYLQMNSLKPEDTAVYYCNARYLFVERYFLHYASVRYDYWGQGTQVTVST”, the “polyreactivity (PSR sort gate)” value is reported as “low polyreactivity”.

For the sequence “QVPLVESGGGLVQAGGSLRLSCAASGSTLAANAMGWYRQAPGKERELVAAIDGGGSTYYADSVKGRFTISRDNAKNTVYLQMNILKPDDTAVYYCATPYVWTITQKKYDYWGQGTQVTVSS”, the “polyreactivity (PSR sort gate)” value is “low polyreactivity”.

For the sequence “QVPLVESGGGLVQAGGSLRLSCDASGSTFFPNAMGWYRQAPGKEREFVAAISWSGGRTYYADSVKGRFTISRDNAKNTVYLQMNSLKPEDTAVYYCAARLYTVRYGYWGQGTQVTVSS”, the “polyreactivity (PSR sort gate)” value is “high polyreactivity”.

With “QVPLVESGGGLVQAGRSLRLSCAASGITFRHNTMGWYRQAPGKERELVSTNYADSVKGRFTFSRDNAKNTVYLQMNSLKPEDTAVYYCNADGTFESDYWGQGTQVTVSS”, the “polyreactivity (PSR sort gate)” value is given as “low polyreactivity”.

For “QVPLVESGRGLVQAGGSLRLSCAASGFIFKYYAMGWYRQAPGKEGELVASISSSGSSTYYADSVKGRFTISRDNAKNTVYLQMNSLKAEDTAVNYCNTVTYGPSAYDYLGQGTQVTVSS”, the “polyreactivity (PSR sort gate)” value is on record as “low polyreactivity”.

For the sequence “QVPMQESGGGLVQADGRLSLSCAASGSIFGYYYMGWYRQAPGKDRELVATINICGITNYADSVKGRFTISRDNAKNTVYLQMNSLKPDATAVYYCAADEYAQRDLGYWGQGPQVTVSS”, the “polyreactivity (PSR sort gate)” value is given as “low polyreactivity”.
